Assay: soluble on expression in E. coli; label from the status in PepcDB or PDB records

Sequence	soluble on expression in E. coli
MAGDPMLKQLKKVIITTAIALATLCSTQAFAETNPYLLMQKTADKLFTNIKNNQTKIKANPEYLRDIVREDLMSYVHIRYAGQLVLGKSLSSVSEPQREKFFNAFGKFIEQAYAQILTQYEDQQIQIENEKPLGDKSIVSIRVNVLSSGSTPPIKLDFKWRKNSKTGEWQAYDMAAEGVSMVATKQNEWSNILRQQGIDALTNQVEKAAKQPITLNKLEHHHHHH	soluble
MAGEGQIRLTDSCVQRLLEITEGSEFLRLQVEGGGCSGFQYKFSLDTVINPDDRVFEQGGARVVVDSDSLAFVKGAQVDFSQELIRSSFQVLNNPQAQQGCSCGSSFSIKL	soluble
MAGILHNEGVKVAITTDHPVTRIQDLLICAGLAAKEGLGIEEGLKAITINPAEICNVANRVGSIEVNKDADIAIFDGNPMETFTKTMYTIINGEIVYSLKDLEHHHHHH	not soluble
MAGISLLLDQAFHRHFADFFTLRSVDNRVLLNLASPRHQLAKQSLVLLAKCCFLFHLSVSISNFPTVYPTRSTIDRFKRIFPHSPRVNADLSSSSWQTSRRNYCDHALEEYVDKIFVDEAVNELQTIQDILRWSVSRFSAANIWYGHGTDNPWDEAVQLVLPSLYLPLDIPEDMRTARLTSSEKHRIVERVIRRVNERIPVAYLTNKAWFCGHEFYVDERVLVPRSPIGELINNKFAGLISKQPQHILDMCTGSGCIAIACAYAFPEAEVDAVDISPDALAVAEQNIEEHGLIHNVIPIRSDLFRDLPKVQYDLIVTNPPYVDAEDMSDLPNEYRHEPELGLASGTDGLKLTRRILGNAADYLADDGVLICEVGNSMVHLMEQYPDVPFTWLEFDNGGDGVFMLTKEQLIAAREHFAIYKD	not soluble
MAGKVKWVTDIEKSVLINNFEKRGWIQVTDSEDWNFYWMSIQTIRTVFSVDTGYRLTDDQMVNHFPNHYELTRKDLMIKNIKRYRRELEKENSALAEKDDSGKYIYLDFVPVTFMLPADYNLFVEEFRKSPSSTWIMKPCGKAQGKGIFLINKLSQIKKWSRDSRTSTFVAANSGKEAYVISLYIDNPLLIGGKKFDLRLYVLVTTYRPLKCYMWVQESSE	not soluble
MAGLPDQRLANEALKRGDTVTAQQNYQQLAELGYSEAQVGLADIQVGTRDPAQIKQAEATYRAAADTSPRAQARLGRLLAAKPGATEAEHHEAESLLKKAFANGEGNTLIPLAMLYLQYPHSFPNVNAQQQISQWQAAGYPEAGLAQVLLYRTQGTYDQHLDDVERICKAALNTTDICYVELATVYQKKQQPEQQAELLKQMEAGVSRGTVTAQRVDSVARVLGDATLGTPDEKTAQALLEKIAPGYPASWVSLAQLLYDFPELGDVEQMMKYLDNGRAADQPRAELLLGKLYYEGKWVPADAKAAEAHFEKAVGREVAADYYLGQIYRRGYLGKVYPQKALDHLLTAARNGQNSADFAIAQLFSQGKGTKPDPLNAYVFSQLAKAQDTPEANDLATQLEAPLTPAQRAEGQRLVQQELAARGTLAQSTLQLHALQEEDGEESLLEHHHHHH	soluble
MAGMNTENENRVEALEVRLAFQDELLDALNATVARQQKEIDLLQQQIRLLYQQFRNAQPDDAPGGSLRDDIPPHY	not soluble
MAGPQQQPPYLHLAELTASQFLEIWKHFDADGNGYIEGKELENFFQELEKARKGSGMMSKSDNFGEKMKEFMQKYDKNSDGKIEMAELAQILPTEENFLLCFRQHVGSSTEFMEAWRKYDTDRSGYIEANELKGFLSDLLKKANRPYDEPKLQEYTQTILRMFDLNGDGKLGLSEMSRLLPVQENFLLKFQGMKLTSEEFNAIFTFYDKDRSGYIDEHELDALLKDLYEKNKKEMNIQQLTNYRKSVMSLAEAGKLYRKDLEIVLCSEPPM	not soluble
MAGRKEEELKDLTLLGNQGTTYSFTYNPNLLEVFDNKHPDRDYFVKFNCPEFTTLCPKTGQPDFATIYITYIPDKKCVESKSLKLYLFSFRNHGDFHEDCVNIIMNDLIKVMEPRYIEVWGKFTPRGGISIDPYCNWGRPGTKYEKMAEYRLLNHDLYPEKVDNR	not soluble
MAGRRRWSTEQILDAAAELLLAGDAETFSVRKLAASLGTDSSSLYRHFRNKTELLRAVADRILLSAMDGYRPEGDWKQRLTAVALRLRESFGQQPQLAAVWGRHGSGGTGSRLMMEEVLQALRASGLPDDEIPARYHRLVILISSLITAEGGFGAVGAQEHEQGMEQFRVAVLGADPERFPALSHFAREIRPLGADRGAAFEEILAAHLAHLEAAAP	soluble
MAHHHHHHGAYDVARVRGLHPSLGDGWVHFDAPAGMLIPDSVATTVSTAFRRSGASTVGAHPSARRSAAVLDAAREAVADLVNADPGGVVLGADRAVLLSLLAEASSSRAGLGYEVIVSRLDDEANIAPWLRAAHRYGAKVKWAEVDIETGELPTWQWESLISKSTRLVAVNSASGTLGGVTDLRAMTKLVHDVGALVVVDHSAAAPYRLLDIRETDADVVTVNAHAWGGPPIGAMVFRDPSVMNSFGSVSTNPYATGPARLEIGVHQFGLLAGVVASIEYLAALDESARGSRRERLAVSMQSADAYLNRVFDYLMVSLRSLPLVMLIGRPEAQIPVVSFAVHKVPADRVVQRLADNGILAIANTGSRVLDVLGVNDVGGAVTVGLAHYSTMAEVDQLVRALASLG	soluble
MAHHHHHHMAAVFSTDASPSADVAVTAQFRVARGEYPTLAVLKQVPLLDDEALRLAMEKLAARRAGHTAGGGADGEPEGVDYTRYTTVDGEGTQACPCKDTGVWPAWVFSPGIQLMARRLRVRELSLEFLSLIDSMMAVNPADRPTAEAVLLDSPVFGMRMPWWEKVVEKAVRRVVEGKENVLLDVCVGDSDEEEEEDEEEAALVRRTMMPLVLPAENHGYVPHNVIHWWNVDLTRGEPDHTKWLSPTSLLASLLTTVRDLTGLEAARDAQDPVLREVPLYTATSLQFVERVCVPVRGTDVSARKIEDGPLFRELEAGGHSTGFFIHVQIRIRAIARAGQVLMANGWAEEEDVADQEEMARRAMEELVATTEKWLLSREATTGVAALHVLPWVSWHLNEEEAGTDGSTQHCFIVEYAAAGPGDGQPQPCANESSVTGEVSSVFRDWRANLTDGLQRLCCDDATAPDETTHDGASNAPRGGLRLEEKLEAMLDALEAVESELMERQKRNEAHQGLLQDHVVHWLSVRAAPSVERCMETLQGVCGGGDVSSQQIHEWILTTVFTSEGAMALMPVLRI	not soluble
MAHHHHHHMADDILQCVHKEFKYVLISSDINDQIKELTFSGSERKFQGVLASYFRRIIFDEKGKNELKEVIKEKLKVSKENDNGGTERAGAEQEGDQNGQKSGQPNGAELNASAITPDLINNAVESSQTYQIIPLTIPTEKTNFFAVNCYIDDIGRIKKLPYNSRASRICSTEIYGDAFLSKTYDNEDFRRCDFTISEYEQFLQNPPKAENRYPPSDTMCVSG	soluble
MAHHHHHHMADNITNDKRDIFKIHKWSAVAAWSWDISVDNCAICRNHIMDLCIECQAKTTDHENDKDKKIDKEGCTVAWGVCNHAFHLHCISRWIKARQVCPLDNTTWEFQKATD	soluble
MAHHHHHHMADRADHYINQLNDAYALKVGGIYNHSTLASSNHNKAHTFGSMPHALIQMFEGDVVKAVEAYHKTFPEDDLYALVDFHNDVISDSLACLKAFKNKLKAVRIDTSKALIDKMFSEGEAEYGVTQNQVKRLREALDANGGKHVKITVSSGFNAKRIKEFEDENTPVDTYGVGASLLKI	soluble
MAHHHHHHMAEALHERHFFDKFIKMNIPDDYLDASRFRVIPDNQEVYVHKFQDKCLIIEILCFQNMNIQEKGNFYFYDLAKENDSIENVIITSNHSVPHSQGNYILLVGRQKIKKNNSSTHEPILLYICIFPLEEHNADIIITWNVPKEDMDIQPELETFNEMMQSFRILDYTLFV	soluble
MAHHHHHHMAEHLLEQLRDVMVLQPSDGAVGNGEMDTSAANSHKYSVVSTFTNSPFVAVLEDTENNEDDEKELIRLLDELSHRIHCSDAADDVERPSGSFAVEKVEAPTLRASHMAPPIYGSPAPAGGSPFNYASCVSQTTKPPPSFAEAVATTPPLSEVPVELSPLAAHYVPPMPAVQQDPILLRNTHGVFMLRPITKPTPPYTPPSLTSSISQPPRYALPPAALPQSQPHFLGSSLAQVGGLADAQIPKKSSFSPYEIPHSMNNVIGGSQILGTGGAGNYTYISTSVKSKSTSHMQPPPPYPS	not soluble

— the DeepSol protein solubility set
